The source of these data is publication PMC314469, “Protein Interaction Networks by Proteome Peptide Scanning” (PLoS Biology, 2004).

What all share (assay): SPOT array
Experiment [1] deals with T1, Boi2 SH3 (BOI2_YEAST), P39969.
T1 chain: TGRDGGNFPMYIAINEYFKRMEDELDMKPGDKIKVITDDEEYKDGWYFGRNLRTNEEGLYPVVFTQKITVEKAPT

Experiment [2] has as its target T2, Yhr016c SH3 (YSC84_YEAST), P32793.
T2 chain: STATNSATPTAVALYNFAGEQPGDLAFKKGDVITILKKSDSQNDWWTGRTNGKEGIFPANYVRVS

For experiment [3], the target named is T3, Boi1 SH3 (BOI1_YEAST), P38041.
T3 chain: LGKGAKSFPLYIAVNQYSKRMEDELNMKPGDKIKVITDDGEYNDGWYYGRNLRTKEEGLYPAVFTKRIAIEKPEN

The target of experiment [4] is T4, Rvs167 SH3 (RV167_YEAST), P39743.
T4 chain: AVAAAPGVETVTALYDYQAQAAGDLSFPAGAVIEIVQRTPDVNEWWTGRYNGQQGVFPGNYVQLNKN

For experiment [5], the target named is T5, Yfr024 SH3 (LSB3_YEAST), P43603.
T5 chain: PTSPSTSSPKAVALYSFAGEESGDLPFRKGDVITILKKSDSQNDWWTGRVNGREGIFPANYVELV

B1: YER163C 47-60 (peptide)
chain: RGTPANPGRVATLI
On to B1, for which the normalised SPOT signal, Boehringer light units (BLU); mean over the file's lines of this peptide in experiment [1] stood at 0; in experiment [2] it was 199; in experiment [3], 147; in experiment [4] it was 48.8; in experiment [5] it was 146.

B2: YGR146C 14-27 (peptide)
chain: RLIPTSPQKTNINT
Turning to B2, the normalised SPOT signal, Boehringer light units (BLU); mean over the file's lines of this peptide was determined as 30.1 in experiment [1]; 197 in experiment [2]; 52.5 in experiment [3]; 73.9 in experiment [4]; 547 in experiment [5].

B3: YPL073C 83-96 (peptide)
chain: RGIPARPSKDDVMK
Consider B3, for which the normalised SPOT signal, Boehringer light units (BLU); mean over the file's lines of this peptide in experiment [1] was 14.7; in experiment [2], 880; in experiment [3], 55; in experiment [4], 1080; in experiment [5] it was 7220.

B4: YHR037W 29-42 (peptide)
chain: RNEPVKPFRNIDLK
Consider B4, for which the normalised SPOT signal, Boehringer light units (BLU); mean over the file's lines of this peptide in experiment [1] came to 47.3; in experiment [2], 838; in experiment [3] it was 146; in experiment [4], 39; in experiment [5] it was 6040.

B5: YLR073C 15-28 (peptide)
chain: RFNPAIPLRIYLKT
For the molecule B5, the normalised SPOT signal, Boehringer light units (BLU); mean over the file's lines of this peptide in experiment [1] was determined as 38.4; in experiment [2] it was 846; in experiment [3], 66.6; in experiment [4], 116; in experiment [5] it was 3040.

B6: YNL064C 356-369 (peptide)
chain: RIVPAIPKKATVDE
In the case of B6, the normalised SPOT signal, Boehringer light units (BLU); mean over the file's lines of this peptide in experiment [1] worked out at 27.5; in experiment [2] it was 3320; in experiment [3], 92.7; in experiment [4], 10900; in experiment [5], 13100.

B7: YGR198W 7-20 (peptide)
chain: RIPPTVPSKIIDVV
Regarding B7, the normalised SPOT signal, Boehringer light units (BLU); mean over the file's lines of this peptide in experiment [1] is 22.2; in experiment [2], 158; in experiment [3], 43.1; in experiment [4], 44.9; in experiment [5], 618.

B8: YOR181W 311-324 (peptide)
chain: RPLPQLPNRNNRPV
In the case of B8, the normalised SPOT signal, Boehringer light units (BLU); mean over the file's lines of this peptide amounted to 33.8 in experiment [1]; 9140 in experiment [2]; 6170 in experiment [3]; 25200 in experiment [4]; 19600 in experiment [5].

B9: YOL164W 148-161 (peptide)
chain: RHRPQKPVRTVIYT
With B9, the normalised SPOT signal, Boehringer light units (BLU); mean over the file's lines of this peptide is 62.7 in experiment [1]; 90.2 in experiment [2]; 101 in experiment [3]; 48.3 in experiment [4]; 3300 in experiment [5].

B10: YDR359C 776-789 (peptide)
chain: RPNPTQPRKPLDSK
With B10, the normalised SPOT signal, Boehringer light units (BLU); mean over the file's lines of this peptide worked out at 61.7 in experiment [1]; 104 in experiment [2]; 210 in experiment [3]; 162 in experiment [4]; 271 in experiment [5].

B11: YLR144C 22-35 (peptide)
chain: RGPPPLPPRANVQP
B11: the normalised SPOT signal, Boehringer light units (BLU); mean over the file's lines of this peptide came out at 14.3 in experiment [1]; 33400 in experiment [2]; 3000 in experiment [3]; 18300 in experiment [4]; 25900 in experiment [5].

B12: YIL047C 210-223 (peptide)
chain: RLLPSWPKRGFSLL
On to B12, for which the normalised SPOT signal, Boehringer light units (BLU); mean over the file's lines of this peptide was found to be 251 in experiment [1]; 1130 in experiment [2]; 69.4 in experiment [3]; 719 in experiment [4]; 10700 in experiment [5].

B13: YMR004W 190-203 (peptide)
chain: RMIPELPPKRIGSQ
As for B13, the normalised SPOT signal, Boehringer light units (BLU); mean over the file's lines of this peptide worked out at 201 in experiment [1]; 19200 in experiment [2]; 366 in experiment [3]; 4880 in experiment [4]; 34800 in experiment [5].

B14: YDR310C 204-217 (peptide)
chain: RRGPGRPRKDASTS
For the molecule B14, the normalised SPOT signal, Boehringer light units (BLU); mean over the file's lines of this peptide in experiment [1] was found to be 53.5; in experiment [2], 57.2; in experiment [3], 323; in experiment [4], 212; in experiment [5], 889.

B15: YFR013W 82-95 (peptide)
chain: RKRPAPPKKKAPST
For B15, the normalised SPOT signal, Boehringer light units (BLU); mean over the file's lines of this peptide in experiment [1] was found to be 39.9; in experiment [2], 45.5; in experiment [3], 192; in experiment [4], 59.3; in experiment [5], 840.

B16: YER118C 8-21 (peptide)
chain: RPTPRKPSRMATDH
Consider B16, for which the normalised SPOT signal, Boehringer light units (BLU); mean over the file's lines of this peptide amounted to 74.7 in experiment [1]; 2650 in experiment [2]; 80.2 in experiment [3]; 2100 in experiment [4]; 16500 in experiment [5].

B17: YER032W 258-271 (peptide)
chain: RPPPLTPEKNLYLT
On to B17, for which the normalised SPOT signal, Boehringer light units (BLU); mean over the file's lines of this peptide in experiment [1] turned out to be 75.9; in experiment [2], 0; in experiment [3], 64.5; in experiment [4], 50.7; in experiment [5], 381.

B18: YNL139C 1279-1292 (peptide)
chain: RNEPVIPTKPSSSQ
Regarding B18, the normalised SPOT signal, Boehringer light units (BLU); mean over the file's lines of this peptide in experiment [1] amounted to 17; in experiment [2], 115; in experiment [3], 61.2; in experiment [4], 4.9; in experiment [5], 511.

B19: YDR151C 80-93 (peptide)
chain: RPSPWLPSKPNSYH
In the case of B19, the normalised SPOT signal, Boehringer light units (BLU); mean over the file's lines of this peptide was determined as 37.2 in experiment [1]; 578 in experiment [2]; 102 in experiment [3]; 140 in experiment [4]; 6260 in experiment [5].
